Literature values in article PMC5114699.

Biological target: Glu148 (UniProt position 148, MVLGREGPTVQ)

In the case of “ClC-ec1 Cl-/H+ antiporter (H(+)/Cl(-) exchange transporter ClcA) (Escherichia coli)”, the pKa is given as 6.2.
